Data as given in patent publication US20190002886A1, “SIGNALING CENTERS OF ERYTHROID DIFFERENTIATION” (THE CHILDREN'S MEDICAL CENTER CORPORATION, priority 2017, published 2019).

Tested on: human CD34+ cells
Experiment: FACS analysis of erythroid markers CD71 and CD235a on differentiating CD34+ cells
Type: cell-based
Conditions: 25 ng/ml hrBMP4, treated for two days starting from D3 of differentiation
Experimental: To establish the role of BMP signaling in erythroid differentiation, differentiating CD34^+ cells were treated with human recombinant BMP4 (hrBMP4) to activate the pathway, or with dorsomorphin, a known inhibitor of BMP signaling. Knowing that erythroid lineage commitment occurs around D3, differentiating cells were treated for two days starting from D3, to test the effects of these signals on erythrocyte commitment. […] Human CD34+ cells, isolated from peripheral blood of granulocyte colony-stimulating factor-mobilized healthy volunteers, were obtained from the Fred Hutchinson Cancer Research Center. The cells were maintained and differentiated as previously described (Sankaran et al., 2008b; Trompouki et al.,2011). Control and treated stage-matched CD34 cells were washed in PBS and stained with propidium iodide (PI), 1:60 APC-conjugated CD235a (eBioscience, clone HIR2, 17-9987-42), 1:60 FITC-conjugated CD71 (eBioscience, OKT9, 11-0719-42), 1:60 PE-conjugated CD41a (eBioscience, HIP8, 12-0419-42) and 1:60 PE-conjugated CD11b (eBioscience, ICRF44, 12-0118-42). BD Bioscience LSR II flow cytometer was used to record raw FACS data, which were analyzed subsequently using FlowJo 8.6.9 10.0.7 (TreeStar). Human CD34^+ cells, isolated from peripheral blood of granulocyte colony-stimulating factor mobilized healthy volunteers, were purchased from the Fred Hutchinson Cancer Research Center. […]

B1: BMP4: human recombinant BMP4 (R&D) used to activate the BMP pathway (protein)
chain: MIPGNRMLMVVLLCQVLLGGASHASLIPETGKKKVAEIQGHAGGRRSGQSHELLRDFEATLLQMFGLRRRPQPSKSAVIPDYMRDLYRLQSGEEEEEQIHSTGLEYPERPASRANTVRSFHHEEHLENIPGTSENSAFRFLFNLSSIPENEVISSAELRLFREQVDQGPDWERGFHRINIYEVMKPPAEVVPGHLITRLLDTRLVHHNVTRWETFDVSPAVLRWTREKQPNYGLAIEVTHLHQTRTHQGQHVRISRSLPQGSGNWAQLRPLLVTFGHDGRGHALTRRRRAKRSPKHHSQRARKKNKNCRRHSLYVDFSDVGWNDWIVAPPGYQAFYCHGDCPFPLADHLNSTNHAIVQTLVNSVNSSIPKACCVPTELSAISMLYLDEYDKVVLKNYQEMVVEGCGCR
increase in erythroid cell counts (CD71 and CD235a): 1.5-2 fold
